Measured values reported in patent publication US20180128830A1, “DETECTION OF HUMAN CYTOMEGALOVIRUS IN BREAST CANCER” (priority 2015, published 2018).

What was measured:
Assay type in all cases: cell-based, human
MDA-MB-231 cells [1] = experiment: Migration assay toward EGF (modified Boyden chamber); details: 5 hrs; for cell movement toward cytokine alone: no EGF
Experimental: Cells were harvested and resuspended at a density of 2×10^6 cells per ml in complete medium. A total volume of 0.1 ml cell suspension (2×10^5 cells) was placed in the upper chamber of a ThinCert filter with 8 μm pores in a 24-well plate (Greiner Bio-One North America, Monroe, Calif.). […] Medium from the lower chamber was collected, used to rinse the bottom of the filter twice, and then centrifuged at 1000 rpm for 10 min. The cell pellet was resuspended in 0.1 ml media and transferred to a white 96-well plate. Viable cell number was quantified using the Cell Titer Glo Assay kit according to the manufacturer's protocol.

MDA-MB-231 cells [2] = experiment: Standard cell counts (hemacytometer); details: 100 ng/ml, 6-well dishes
Experimental: Cells were seeded into 96-well dishes at a density of 1×10^4 cell per well in complete medium with varying doses of cmvIL-10, and then cell viability measured at the indicated time points using the Cell Titer Glo Assay kit according to manufacturer's instructions (Promega). DNA synthesis was measured in cells prepared in the same way using the BrdU Cell Proliferation ELISA Kit (Roche, Basel, Switzerland). For experiments using inhibitors, cells were cultivated in 96-well dishes as above with a final concentration of 10 μM inhibitor and BrdU incorporation evaluated after 72 hrs. For cell counts, cells were seeded into 6-well plates at a density of 2×10^5 cells per well, harvested via trypsinization, and counted using a hemacytometer at the indicated time points. The TACS Annexin V-FITC Detection Kit (Trevigen, Gaithersburg, Md.) was used to stain cells harvested from 70% confluent T75 flasks that had been treated with 100 μM etoposide for 48 hrs in the presence or absence of 100 ng/ml cmvIL-10. Cells were then analyzed via flow cytometry to detect fluorescence. For viability assays, Cell Titer Glo reagent was utilized to quantify cells that had been seeded into 96-well dishes at a density of 1×10^4 cell per well in complete medium with varying doses of etoposide in the presence or absence of 100 ng/ml cmvIL-10 as indicated

Stat3 = experiment: Western blot for Stat3 phosphorylation in MDA-MB-231 cells; details: 100 ng/ml, 15 min
Experimental: For western blotting, cells were treated with 100 ng/ml cmvIL-10, hIL-10, IFNγ or PBS for 15 min, then harvested into cell lysis buffer (150 mM NaCl, 20 mM HEPES, 0.5% Triton-X-100, 1 mM NaOV4, 1 mM EDTA, 0.1% NaN3). Lysates were clarified, proteins were separated via SDS-PAGE, and then transferred to a nitrocellulose membrane. Then membrane was incubated in blocking solution (5% milk+1×TBS-T) for 1 hr, then probed with primary antibody at a 1:1000 dilution (total Stat3 or pStat3, total Stat1 or pStat1) in blocking solution overnight at 4° C. After washing, the membranes were incubated with a 1:2000 dilution of appropriate AP-conjugated secondary antibody and bands were detected using Western Blue stabilized AP substrate (Promega, Madison, Wis.). For analysis of secreted proteins, supernatants were collected at various time points, analyzed by SDS-PAGE and then immunoblotted as above for cmvIL-10, hIL-10, or serpin E1/PAI.

hIL-10: purified recombinant human interleukin-10 from R&D Systems
cell movement toward cytokine alone (MDA-MB-231 cells [1]): failed to stimulate cell movement
cell numbers (MDA-MB-231 cells [2]): higher cell numbers than control cultures
83 kD band of phosphorylated Stat3 (pStat3) (Stat3): detected

B1: cmvIL-10 (protein)
chain: ATTTTIKNTKPQCRPEDYATRLQDLRVTFHRVKPTLQREDDYSVWLDGTVVKGCWGCSVMDWLLRRYLEIVFPAGDHVYPGLKTELHSMRSTLESIYKDMRQCPLLGCGDKSVISRLSQEAERKSDNGTRKGLSELDTLFSRLEEYLHSRK
migration response toward EGF with cytokine in lower chamber (MDA-MB-231 cells [1]; 100 ng/ml cytokine plus EGF): significantly increased
cell movement toward cytokine alone (MDA-MB-231 cells [1]): did not stimulate cell movement
cell numbers (MDA-MB-231 cells [2]): higher cell numbers than control cultures
83 kD band of phosphorylated Stat3 (pStat3) (Stat3): detected
